Results from patent US20200188434A1, “A CELL COMPRISING A CHIMERIC ANTIGEN RECEPTOR (CAR)” (AUTOLUS LIMITED, priority 2017, published 2020).

Legend:
streptavidin = streptavidin (Streptomyces avidinii, UniProt P22629); conditions: biotin mimicking peptides binding streptavidin; read-out: affinity; cited from earlier work
[1] = target: membrane tethering component (v5-CD22(2Ig)-TM-FRB) (human); experiment: cell-based or functional assay
SKOV3_BCMA cells = conditions: 72 hour time point; T cells expressing CAR, membrane tethering component and signal dampening component
Description: FIG. 13—A: Results of an Incucyte assay comparing killing of BCMA+ SKOV3 target cells over time in the presence of varying concentrations of rapamycin by T cells expressing an anti-BCMA CAR alone (Left-hand chart) or expressing an anti-BCMA CAR in combination with a membrane tethering component (v5-CD22(2Ig)-TM-FRB) and a signal dampening component (FKBP12-CD148).
B: A summary of the data presented in A at the 72 hour time-point.
SKOV3 cells, were engineered to be BCMA positive for use as target cells. Primary human T-cells from 2 donors were transduced with two CAR constructs: (i) “Classical” anti-BCMA CAR; (ii) the tri-cistronic “dampenable” BCMA CAR system described above, Non-transduced T-cells and T-cells transduced with the different CAR constructs were challenged 8:1 with SKOV3_BCMA cells in the presence of different concentrations of rapamycin and target cell killing was investigated using an incucyte assay.

streptavidin, sequence (P22629 37-163): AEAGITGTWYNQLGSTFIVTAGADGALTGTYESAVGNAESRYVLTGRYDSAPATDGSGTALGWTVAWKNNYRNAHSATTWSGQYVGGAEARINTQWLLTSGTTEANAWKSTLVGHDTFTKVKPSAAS
membrane tethering component (v5-CD22(2Ig)-TM-FRB) (human), sequence (chain, as listed by the source): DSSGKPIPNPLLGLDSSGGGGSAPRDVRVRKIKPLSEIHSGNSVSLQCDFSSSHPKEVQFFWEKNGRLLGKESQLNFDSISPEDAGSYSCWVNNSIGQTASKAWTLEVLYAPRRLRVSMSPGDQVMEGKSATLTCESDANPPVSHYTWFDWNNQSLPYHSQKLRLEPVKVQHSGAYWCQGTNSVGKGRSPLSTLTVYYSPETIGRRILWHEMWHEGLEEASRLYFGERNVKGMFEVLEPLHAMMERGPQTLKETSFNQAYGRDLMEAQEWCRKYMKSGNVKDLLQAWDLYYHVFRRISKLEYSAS

| Compound | Kd (streptavidin) [nM] | other results |
| --- | --- | --- |
| Biotin mimicking peptide, sequence DVEAWLGAR (SEQ ID NO: 37) (Biotin mimicking peptide, short nanotag) | 17 | – |
| signal dampening component (FKBP12-CD148) | – | killing of BCMA+ SKOV3 target cells at the 72 hour time point (incucyte assay); rapamycin concentration above which killing was inhibited [1]: > 0.82 µM; target cells surviving at 50 hours (incucyte assay), T cells co-expressing the CAR with a dampener, with rapamycin [1]: 50% |
| Biotin mimicking peptide, sequence DVEAWLDERVPLVET (SEQ ID NO: 36) (Biotin mimicking peptide, long nanotag) | 3.6 | – |
| Biotin mimicking peptide, sequence CHPQGPPC (SEQ ID NO: 41) (Biotin mimicking peptide, ccstreptag) | 230 | – |
| CO[C@H]1C[C@@H]2CC[C@@H](C)[C@@](O)(O2)C(=O)C(=O)N2CCCC[C@H]2C(=O)O[C@H]([C@H](C)C[C@@H]2CC[C@@H](O)[C@H](OC)C2)CC(=O)[C@H](C)/C=C(\C)[C@@H](O)[C@@H](OC)C(=O)[C@H](C)C[C@H](C)/C=C/C=C/C=C/1C [Rapamycin, rapamycin] | – | tested concentrations of Rapamycin at which killing of target cells was significantly inhibited (SKOV3_BCMA cells): above 0.82 μM |
| Biotin mimicking peptide, sequence WSHPQFEK (SEQ ID NO: 39) [streptagII] | 72000 | – |
